Measurements: US20240392020A1 (JIANGSU HENGRUI PHARMACEUTICALS, published 2024)

T1: CEA on MKN45 cells (UniProt P06731 35-685)
T1 construct: whole, on cells
T1 sequence (looked up): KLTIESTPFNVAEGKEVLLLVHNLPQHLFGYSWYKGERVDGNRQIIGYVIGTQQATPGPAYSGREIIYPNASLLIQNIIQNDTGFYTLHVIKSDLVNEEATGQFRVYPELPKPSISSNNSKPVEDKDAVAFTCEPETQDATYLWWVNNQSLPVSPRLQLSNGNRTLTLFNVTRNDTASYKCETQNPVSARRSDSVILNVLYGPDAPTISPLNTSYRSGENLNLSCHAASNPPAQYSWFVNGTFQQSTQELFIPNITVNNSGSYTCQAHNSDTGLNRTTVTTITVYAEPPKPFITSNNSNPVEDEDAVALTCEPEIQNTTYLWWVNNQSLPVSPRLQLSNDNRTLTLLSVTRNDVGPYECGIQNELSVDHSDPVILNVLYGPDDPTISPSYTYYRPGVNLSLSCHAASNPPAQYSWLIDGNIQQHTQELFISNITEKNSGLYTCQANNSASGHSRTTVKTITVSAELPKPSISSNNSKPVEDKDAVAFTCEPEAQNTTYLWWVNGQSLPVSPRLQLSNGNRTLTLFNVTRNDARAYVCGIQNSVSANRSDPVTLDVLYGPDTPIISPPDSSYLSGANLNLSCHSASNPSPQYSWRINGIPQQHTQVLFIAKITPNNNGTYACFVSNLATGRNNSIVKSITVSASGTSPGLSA


Key:
CEA on MKN45 cells = biological target: T1, CEA on MKN45 cells; assay: FACS, MKN45 cells
hPDL1 antigen = biological target: T2, hPDL1 antigen (human, UniProt Q9NZQ7 19-239, limits assumed); assay: ELISA
T2 construct: bought
T2 sequence (Q9NZQ7 19-239 limits assumed): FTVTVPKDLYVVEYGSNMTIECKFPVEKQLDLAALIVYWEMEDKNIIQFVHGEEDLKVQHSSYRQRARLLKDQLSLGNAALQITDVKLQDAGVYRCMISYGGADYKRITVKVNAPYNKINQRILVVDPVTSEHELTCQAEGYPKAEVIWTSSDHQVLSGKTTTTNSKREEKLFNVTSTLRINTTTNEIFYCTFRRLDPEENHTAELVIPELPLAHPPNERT
Method: For an antibody targeting a soluble protein, the binding activity of the antibody against the soluble protein was detected by ELISA. […] After the blocking was completed, the blocking solution was discarded; and the plate was washed 3 times with a PBST buffer (pH 7.4, PBS containing 0.1% tween-20). 100 μL of the antibody solution diluted in a gradient was added to each well, and the mixture was incubated at 37° C. for 1 h. After the incubation was completed, the plate was washed 3 times with PBST. […] The plate was washed 3 times with PBST. […] The reaction was stopped by adding 50 μL of 1 M H₂SO₄ to each well. The absorbance values at 450 nm were read on a microplate reader, the binding curves of the antibodies to an antigen were fitted with software, and the EC₅₀ values were calculated.

Binder	EC50 (CEA on MKN45 cells) [nM]	EC50 (hPDL1 antigen) [nM]
N25 (antibody) heavy: not shown light: EIVLTQSPGTLSLSPGERATLSCRASQNINNRFLAWYQQRPGQAPRLLIYAASSRATGVPDRFSGSGSGTDFTLTISRLEAEDFAMYHCQQYGSFPRTFGQGTMVDIKGGGGSGGGGSSGAPRFLTRPKAFVVSVGKDATLSSQIVGNPTPQVSWEKDQQPVAAGARFRLAQDGDLYRLTILDLALGDSGQYVSRARNAIGEAFACVGLQVDAEA	0.62	–
N27 (antibody) heavy: not shown light: EIVLTQSPGTLSLSPGERATLSCRASQNINNRFLAWYQQRPGQAPRLLIYAASSRATGVPDRFSGSGSGTDFTLTISRLEAEDFAMYHCQQYGSFPRTFGQGTMVDIKGGGGSGGGGSSGAPRFLTRPKAFVVSVGKDATLSSQIVGNPTPQVSWEKDQQPVAAGARFRLAQDGDLYRLTILDLALGDSGQYVSRARNAIGEAFACVGLQVDAEA	0.67	–
N18 (antibody) heavy: not shown light: EIVLTQSPGTLSLSPGERATLSCRASQNINNRFLAWYQQRPGQAPRLLIYAASSRATGVPDRFSGSGSGTDFTLTISRLEAEDFAMYHCQQYGSFPRTFGQGTMVDIKDQPQFSGAPRFLTRPKAFVVSVGKDATLSSQIVGNPTPQVSWEKDQQPVAAGARFRLAQDGDLYRLTILDLALGDSGQYVSRARNAIGEAFACVGLQVDAEA	3.2	–
N26 (antibody) heavy: not shown light: EIVLTQSPGTLSLSPGERATLSCRASQNINNRFLAWYQQRPGQAPRLLIYAASSRATGVPDRFSGSGSGTDFTLTISRLEAEDFAMYHCQQYGSFPRTFGQGTMVDIKGGGGSSGAPRFLTRPKAFVVSVGKDATLSSQIVGNPTPQVSWEKDQQPVAAGARFRLAQDGDLYRLTILDLALGDSGQYVSRARNAIGEAFACVGLQVDAEA	0.84	–
N21 (antibody) heavy: not shown light: EIVLTQSPGTLSLSPGERATLSCRASQNINNRFLAWYQQRPGQAPRLLIYAASSRATGVPDRFSGSGSGTDFTLTISRLEAEDFAMYHCQQYGSFPRTFGQGTMVDIKDQPQFSGAPRFKTRPKAFVVSVGKDATLSSQIVGNPTPQVSWEKDQQPVAAGARFRLAQDGDLYRLHILDLALGDSGQYVSRARNAIGEAFACVGLQVDAEA	5.2	–
N22 (antibody) heavy: not shown light: EIVLTQSPGTLSLSPGERATLSCRASQNINNRFLAWYQQRPGQAPRLLIYAASSRATGVPDRFSGSGSGTDFTLTISRLEAEDFAMYHCQQYGSFPRTFGQGTMVDIKDQPQFSGAPRFRTRPKAFVVSVGKDATLSSQIVGNPTPQVSWEKDQQPVAAGARFRLAQDGDLYRLKILDLALGDSGQYVSRARNAIGEAFACVGLQVDAEA	4.5	–
N24 (antibody) heavy: not shown light: EIVLTQSPGTLSLSPGERATLSCRASQNINNRFLAWYQQRPGQAPRLLIYAASSRATGVPDRFSGSGSGTDFTLTISRLEAEDFAMYHCQQYGSFPRTFGQGTMVDIKDQPQFSGAPRFRTRPKAFVVSVGKDATLSSQIVGNPTPQVSWEKDQQPVAAGARFRLAQDGDLYRLHILDLALGDSGQYVSRARNAIGEAFACVGLQVDAEA	6.7	–
PL-1 (bispecific antibody, human IgG1, kappa, L234A L235A) heavy 1: not shown light 1: DIVLTQSPASLAVSPGQRATITCRASESVSIHGTHLMHWYQQKPGQPPKLLIYAASKLESGVPARFSGSGSGTDFTLTINPVEAEDTANYYCQQSFEDPLTFGQGTKLEIKGGGGSGIPPKIECLPIDISIDEGKVLTVASAFTGEPTPEVTWSTGGRKIHSQEQGRFHIENTDDLTTLIIKDVQKQDGGLYTLTLRNEFGSDSATVNIHIRSI heavy 2: not shown light 2: not shown	–	1.6
PL-4 (bispecific antibody, human IgG1, kappa, L234A L235A) heavy 1: not shown light 1: DIVLTQSPASLAVSPGQRATITCRASESVSIHGTHLMHWYQQKPGQPPKLLIYAASKLESGVPARFSGSGSGTDFTLTINPVEAEDTANYYCQQSFEDPLTFGQGTKLEIKGGGGSGIPPKIECLPIDISIDEGKVLTVASCFTGEPTPEVTWSTGGRKIHSQEQGRFHIENTDDSTTLTIKDVQKQDGGLYTLTLRNEFGSDSATVNIHIRSI heavy 2: not shown light 2: not shown	–	0.7
PL-2 (bispecific antibody, human IgG1, kappa, L234A L235A) heavy 1: not shown light 1: DIVLTQSPASLAVSPGQRATITCRASESVSIHGTHLMHWYQQKPGQPPKLLIYAASKLESGVPARFSGSGSGTDFTLTINPVEAEDTANYYCQQSFEDPLTFGQGTKLEIKGGGGSGIPPKIECLPIDISIDEGKVLTVASAFTGEPTPEVTWSTGGRKIHSQEQGRFHIENTDDSTTLTIKDVQKQDGGLYTLTLRNEFGSDSATVNIHIRSI heavy 2: not shown light 2: not shown	–	0.5
PL-7 (bispecific antibody, human IgG1, kappa, L234A L235A) heavy 1: not shown light 1: DIVLTQSPASLAVSPGQRATITCRASESVSIHGTHLMHWYQQKPGQPPKLLIYAASKLESGVPARFSGSGSGTDFTLTINPVEAEDTANYYCQQSFEDPLTFGQGTKLEIKGGGGSGIPPKIECLPIDISIDEGKVLTVASCFTGEPTPEVTWSTGGRKIHSQEQGRFHIENTDDSTTLTIKDVQKQDGGLYTLTLRNEFGSDSATVNIHIRSI heavy 2: not shown light 2: not shown	–	0.5
PL-5 (bispecific antibody, human IgG1, kappa, L234A L235A) heavy 1: not shown light 1: DIVLTQSPASLAVSPGQRATITCRASESVSIHGTHLMHWYQQKPGQPPKLLIYAASKLESGVPARFSGSGSGTDFTLTINPVEAEDTANYYCQQSFEDPLTFGQGTKLEIKGGGGSGIPPKIECLPIDISIDEGKVLTVASAFTGEPTPEVTWSTGGRKIHSQEQGRFHIENTDDSTTLTIKDVQKQDGGLYTLTLRNEFGSDSATVNIHIRSI heavy 2: not shown light 2: not shown	–	0.7
PL-6 (bispecific antibody, human IgG1, kappa, L234A L235A) heavy 1: not shown light 1: DIVLTQSPASLAVSPGQRATITCRASESVSIHGTHLMHWYQQKPGQPPKLLIYAASKLESGVPARFSGSGSGTDFTLTINPVEAEDTANYYCQQSFEDPLTFGQGTKLEIKGGGGSGIPPKIECLPIDISIDEGKCLTVASAFTGEPTPEVTWSTGGRKIHSQEQGRFHIENTDDSTTLTIKDVQKQDGGLYTLTLRNEFGSDSATVNIHIRSI heavy 2: not shown light 2: not shown	–	0.8
PL-3 (bispecific antibody, human IgG1, kappa, L234A L235A) heavy 1: not shown light 1: DIVLTQSPASLAVSPGQRATITCRASESVSIHGTHLMHWYQQKPGQPPKLLIYAASKLESGVPARFSGSGSGTDFTLTINPVEAEDTANYYCQQSFEDPLTFGQGTKLEIKGGGGSGIPPKIECLPIDISIDEGKCLTVASAFTGEPTPEVTWSTGGRKIHSQEQGRFHIENTDDSTTLTIKDVQKQDGGLYTLTLRNEFGSDSATVNIHIRSI heavy 2: not shown light 2: not shown	–	0.6

The remaining lines, values ahead:

EC50 (CEA on MKN45 cells) [nM]	EC50 (hPDL1 antigen) [nM]	Binder
–	0.6	PL-11 (bispecific antibody, human IgG1, kappa, L234A L235A) heavy 1: not shown light 1: DIVLTQSPASLAVSPGQRATITCRASESVSIHGTHLMHWYQQKPGQPPKLLIYAASKLESGVPARFSGSGSGTDFTLTINPVEAEDTANYYCQQSFEDPLTFGQGTKLEIKRTVASGIPPKIECLPIDISIDEGKVLTVASAFTGEPTPEVTWSTGGRKIHSQEQGRFHIENTDDSTTLTIKDVQKQDGGLYTLTLRNEFGSDSATVNIHIRSI heavy 2: not shown light 2: not shown
–	1.3	PL-14 (bispecific antibody, human IgG1, kappa, L234A L235A) heavy 1: not shown light 1: DIVLTQSPASLAVSPGQRATITCRASESVSIHGTHLMHWYQQKPGQPPKLLIYAASKLESGVPARFSGSGSGTDFTLTINPVEAEDTANYYCQQSFEDPLTFGQGTKLEIKRTVASGIPPKIECLPIDISIDEGKVLTVASAFTGEPTPEVTWSTGGRKIHSQEQGRFHIENTDDSTTLTIKDVQKQDGGLYTLTLRNEFGSDSATVNIHIRSI heavy 2: not shown light 2: not shown
–	0.5	PL-12 (bispecific antibody, human IgG1, kappa, L234A L235A) heavy 1: not shown light 1: DIVLTQSPASLAVSPGQRATITCRASESVSIHGTHLMHWYQQKPGQPPKLLIYAASKLESGVPARFSGSGSGTDFTLTINPVEAEDTANYYCQQSFEDPLTFGQGTKLEIKRTVASGIPPKIECLPIDISIDEGKCLTVASAFTGEPTPEVTWSTGGRKIHSQEQGRFHIENTDDSTTLTIKDVQKQDGGLYTLTLRNEFGSDSATVNIHIRSI heavy 2: not shown light 2: not shown
–	0.5	PL-13 (bispecific antibody, human IgG1, kappa, L234A L235A) heavy 1: not shown light 1: DIVLTQSPASLAVSPGQRATITCRASESVSIHGTHLMHWYQQKPGQPPKLLIYAASKLESGVPARFSGSGSGTDFTLTINPVEAEDTANYYCQQSFEDPLTFGQGTKLEIKRTVASGIPPKIECLPIDISIDEGKVLTVASCFTGEPTPEVTWSTGGRKIHSQEQGRFHIENTDDSTTLTIKDVQKQDGGLYTLTLRNEFGSDSATVNIHIRSI heavy 2: not shown light 2: not shown
–	1.4	PL-8 (bispecific antibody, human IgG1, kappa, L234A L235A) heavy 1: not shown light 1: DIVLTQSPASLAVSPGQRATITCRASESVSIHGTHLMHWYQQKPGQPPKLLIYAASKLESGVPARFSGSGSGTDFTLTINPVEAEDTANYYCQQSFEDPLTFGQGTKLEIKGGGGSGIPPKIECLPIDISIDEGKVLTVASAFTGEPTPEVTWSTGGRKIHSQEQGRFHIENTDDSTTLTIKDVQKQDGGLYTLTLRNEFGSDSATVNIHIRSI heavy 2: not shown light 2: not shown
–	0.6	PL-10 (bispecific antibody, human IgG1, kappa, L234A L235A) heavy 1: not shown light 1: DIVLTQSPASLAVSPGQRATITCRASESVSIHGTHLMHWYQQKPGQPPKLLIYAASKLESGVPARFSGSGSGTDFTLTINPVEAEDTANYYCQQSFEDPLTFGQGTKLEIKGGGGSGIPPKIECLPIDISIDEGKVLTVASCFTGEPTPEVTWSTGGRKIHSQEQGRFHIENTDDSTTLTIKDVQKQDGGLYTLTLRNEFGSDSATVNIHIRSI heavy 2: not shown light 2: not shown
–	0.6	PL-9 (bispecific antibody, human IgG1, kappa, L234A L235A) heavy 1: not shown light 1: DIVLTQSPASLAVSPGQRATITCRASESVSIHGTHLMHWYQQKPGQPPKLLIYAASKLESGVPARFSGSGSGTDFTLTINPVEAEDTANYYCQQSFEDPLTFGQGTKLEIKGGGGSGIPPKIECLPIDISIDEGKCLTVASAFTGEPTPEVTWSTGGRKIHSQEQGRFHIENTDDSTTLTIKDVQKQDGGLYTLTLRNEFGSDSATVNIHIRSI heavy 2: not shown light 2: not shown
